Source: patent US6586222 (CHIRON, dated 2003)
The star is where a group is joined. P(O)(OPh)2 = diphenyl phosphonate replacing C-terminal COOH, O=P(Oc1ccccc1)(Oc1ccccc1)*; Boc = CC(C)(C)OC(=O)*

T1: purified, activated recombinant human PR-3 (from proPR-3 secreted by Sf9 insect cells, activated with DPPI) (human, UniProt P24158 28-256)
T1 sequence: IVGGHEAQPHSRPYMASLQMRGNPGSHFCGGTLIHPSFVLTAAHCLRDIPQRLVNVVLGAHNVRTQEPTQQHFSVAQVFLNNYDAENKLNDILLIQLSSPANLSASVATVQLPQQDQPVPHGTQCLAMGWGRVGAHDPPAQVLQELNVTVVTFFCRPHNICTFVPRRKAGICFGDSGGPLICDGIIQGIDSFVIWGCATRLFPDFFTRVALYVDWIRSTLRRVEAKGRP


Target: T1, purified, activated recombinant human …
Assay: cell-based or functional assay

Row | IC50 of residual enzyme activity (Boc-Ala-ONp substrate, 1 hour at 25° C.) | Binder
1 | ~0.4 µM | Boc-Val-Pro-Val-{P(O)(OPh)2} [Boc-Val-Pro-Val-p(OPh)2]
2 | ~10 µM | Boc-Ala-Pro-Val-{P(O)(OPh)2} [Boc-Ala-Pro-Val-p(OPh)2]
